This note sets out measurements from the supplement of paper PMC12764529.

± gives the half width of the 95% confidence interval.

A short description of data set [1]: folding stability dG unfold from chymotrypsin proteolysis; higher = more stable. Summed up:
(§1)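 Designed mini-proteins (under 80 residues, no cysteine) in a PA-tagged cDNA display construct were digested with trypsin and chymotrypsin. Each protease was used at 11 concentrations (threefold dilutions) plus a no-protease condition, followed by sequencing. K50 was inferred by Bayesian fitting of sequencing counts, and unfolding free energy was derived against a sequence-predicted unfolded-state K50 and a shared folded-state K50, per protease or combined. Only designs with AlphaFold2 dimer inter-PAE above 15 were kept.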

Data set [2] in a line: folding stability dG unfold from trypsin proteolysis; higher = more stable. Put shortly: as §1
Data set [3] in a line: folding stability dG unfold (combined trypsin and chymotrypsin); higher = more stable. Put shortly: as §1

Turning to “SAGGSAGGSAGVTIPDPGEEELRKALEAGREVRVAFPESGKVVLVEGPGPELGEEPEPAASAGGSAGGSAGG [r11_94_JUSTAS]”, the “folding stability dG unfold” value in data set [1] is 0.589 ± 0.012 kcal/mol; in data set [2] it was -0.619 ± 0.093 kcal/mol; in data set [3], 0.275 ± 0.075 kcal/mol.
Regarding “SAGGSAGGSAGWGLIITIEVEGEYDPANGQWSLNIEIEIQPIRIPPPKEPPPDDNPNNDDSAGGSAGGSAGG [r17_454_TrROS]”, the “folding stability dG unfold” value was 4.08 ± 0.15 kcal/mol in data set [1], 2.27 ± 0.23 kcal/mol in data set [2] and 3.86 ± 0.32 kcal/mol in data set [3].
On the same counts, the results for “SAGGSAGGSAGWYFPIDELQKEHPNMSPETIADFFQKDGYKIEVEPVGPEPWVKIEPPEKSAGGSAGGSAGG [r11_707_TrROS]” are -0.513 ± 0.67 kcal/mol, 0.658 ± 0.07 kcal/mol and 0.242 ± 0.12 kcal/mol.
Taken in the same sequence, the figures for “SAGGSAGGSAGYESVVNELKRKGYKVEVKKTPDGTYVVTVTKKDGTVETITLGPEGGKISSAGGSAGGSAGG [r17_503_JUSTAS]” were 4.36 ± 0.12 kcal/mol, 2.67 ± 0.14 kcal/mol and 4.16 ± 0.15 kcal/mol.
With “SAGGSAGGSAGYIKTEHEVTVMEKDPDGGTKMIEVPVKITIPIIPIPPEALEKNPEALKKFLSAGGSAGGSA [r18_114_TrROS]”, the “folding stability dG unfold” value in data set [1] turned out to be 0.352 ± 0.14 kcal/mol; in data set [2], 0.461 ± 0.19 kcal/mol; in data set [3] it was 0.514 ± 0.22 kcal/mol.
On to “SAGGSAGGSAGYISIMIFFVLPDGYAIMVKYTFELPPNGNPKIENIEIHVMKLPPGEPIFSAGGSAGGSAGG [r11_517_TrROS]”, for which the figures for the “folding stability dG unfold” value in data set [1], in data set [2] and in data set [3] were 5.35 ± 0.17 kcal/mol, 4.22 ± 0.3 kcal/mol and 5.13 ± 0.3 kcal/mol, respectively.
Turning to “SAGGSAGGSAGYLELKISFFDPDGQILASITIWIEIVIPPPPKMEYERDPEDGNNKWEHDSAGGSAGGSAGG [r17_348_TrROS]”, the “folding stability dG unfold” value worked out at 2.19 ± 0.056 kcal/mol in data set [1], 2.49 ± 0.23 kcal/mol in data set [2] and 2.26 ± 0.17 kcal/mol in data set [3].
On the same counts, the results for “SAGGSAGGSAIKPGETIPIKIGNFPIKITVYGDWVEITFPNGRKIRFRVAVDDGKLEIDIYFSAGGSAGGSA [r18_172_TrROS]” are 4.31 ± 0.14 kcal/mol, 4.07 ± 0.24 kcal/mol and 4.18 ± 0.14 kcal/mol.
Taken in the same sequence, the figures for “SAGGSAGGSAIWIPSPEAADEIMDILAKKNGYKINIEPIGQDEDGGMVYEIEIVPPGQPLTSAGGSAGGSAG [r3_59_TrROS]” were 0.397 ± 0.16 kcal/mol, 0.152 ± 0.066 kcal/mol and 0.484 ± 0.22 kcal/mol.
Regarding “SAGGSAGGSAKAVIFFEGASIEDVVEAVKARPEEEVLVVFPDGRVLLLTKDDVVVVVPAPFSAGGSAGGSAG [r3_269_TrMRF]”, the entries for the “folding stability dG unfold” value in data set [1], in data set [2] and in data set [3] were 1.22 ± 0.11 kcal/mol, 1.19 ± 0.052 kcal/mol and 1.23 ± 0.093 kcal/mol, respectively.
Turning to “SAGGSAGGSAKEIKLKITKVTFTENEDGTLTATFELEDGYRVTIKFNKKTNKVEIKIEPLPSAGGSAGGSAG [r3_438_TrROS_Hall]”, the results for the “folding stability dG unfold” value in data set [1], in data set [2] and in data set [3] were 4.12 ± 0.082 kcal/mol, 2.47 ± 0.091 kcal/mol and 3.74 ± 0.15 kcal/mol, respectively.
Regarding “SAGGSAGGSAKEKYILLKVKPGQKVEIEYENGEKKEVEVLEDGYLLIKVKEKNAKIKIKIKSAGGSAGGSAG [r3_334_TrROS_Hall]”, the “folding stability dG unfold” value in data set [1] amounted to 2.82 ± 0.051 kcal/mol; in data set [2] it was 1.85 ± 0.17 kcal/mol; in data set [3], 2.76 ± 0.32 kcal/mol.
As for “SAGGSAGGSAKEVIIEIKVPPNMTEDEIKELLKKKFKGKKVEIKIEKKKNKNGTLIYKVEVKSAGGSAGGSA [r18_360_TrROS_Hall]”, the “folding stability dG unfold” value in data set [1] stood at 3.13 ± 0.12 kcal/mol; in data set [2], 2.6 ± 0.15 kcal/mol; in data set [3], 2.73 ± 0.34 kcal/mol.
Taken in the same sequence, the figures for “SAGGSAGGSAKIEVEVTPLPGNKVLKIIKFENGEYIIEVFYFDPETGKIYSESEIISEEELLSAGGSAGGSA [r18_325_TrMRF]” were 2.36 ± 0.044 kcal/mol, 1.3 ± 0.039 kcal/mol and 2.05 ± 0.13 kcal/mol.
With “SAGGSAGGSAKIIIIEEDPEEAIRRVEELFGPGARIEPVRVVRVGDKVYVAVGIDIPASLASAGGSAGGSAG [r3_87_TrMRF]”, the “folding stability dG unfold” value was 0.9 ± 0.017 kcal/mol in data set [1], 1.094 ± 0.0092 kcal/mol in data set [2] and 0.977 ± 0.044 kcal/mol in data set [3].
Consider “SAGGSAGGSAKITIELDGITEVEFDEETGELYLRIEVDGKLYEIRITEDGTIEIREVPLEDSAGGSAGGSAG [r3_62_TrROS_Hall]”, for which the “folding stability dG unfold” value was found to be 3.63 ± 0.11 kcal/mol in data set [1], 1.86 ± 0.097 kcal/mol in data set [2] and 3.13 ± 0.17 kcal/mol in data set [3].
Turning to “SAGGSAGGSAKITITKEDIVSYDEENKTFTIKLKDGSTIKIRVEKVKDGKIKVYDEDTGKPISAGGSAGGSA [r18_418_TrROS_Hall]”, the “folding stability dG unfold” value in data set [1] was determined as 1.79 ± 0.048 kcal/mol; in data set [2] it was 1.27 ± 0.063 kcal/mol; in data set [3] it was 1.65 ± 0.18 kcal/mol.
Taken in the same sequence, the figures for “SAGGSAGGSAKKKKKKFKIVKIEIEVEVVKDKKTNKYYVKVKIKIYLKGNKKEFEMEFVFPSAGGSAGGSAG [r3_424_TrROS_Hall]” were 4.07 ± 0.24 kcal/mol, 2.29 ± 0.24 kcal/mol and 3.37 ± 0.59 kcal/mol.
Turning to “SAGGSAGGSAKKKVEIKIEIEEVTNKDGKKYIKIKIEVKVSEEVKKELADALKKAGFKVEPSAGGSAGGSAG [r3_157_TrROS_Hall]”, the “folding stability dG unfold” value was found to be 2.43 ± 0.093 kcal/mol in data set [1], 1.54 ± 0.091 kcal/mol in data set [2] and 2.17 ± 0.16 kcal/mol in data set [3].
Turning to “SAGGSAGGSAKKKYVFTIPVKPNTFNPEKLKKFIEKAFPEFKNYEIKVEVLPDGTAKVYIEASAGGSAGGSA [r18_65_TrMRF]”, the “folding stability dG unfold” value in data set [1] came to 4.4 ± 0.11 kcal/mol; in data set [2] it was 2.69 ± 0.12 kcal/mol; in data set [3] it was 3.89 ± 0.24 kcal/mol.
With “SAGGSAGGSAKKPPVYKIKIKVVNKKTKKEIEIEVEVKAGKTPEEIAKELAKKFGIEKVEIESAGGSAGGSA [r18_58_TrROS_Hall]”, the “folding stability dG unfold” value was determined as 1.47 ± 0.18 kcal/mol in data set [1], 1.14 ± 0.12 kcal/mol in data set [2] and 1.45 ± 0.27 kcal/mol in data set [3].
As to “SAGGSAGGSAKPDPGAPYPWKIVEVVPIRIDMYFKFPGEPFKMDIEIPILVMVDPDNGKIFSAGGSAGGSAG [r3_391_TrROS]”, the “folding stability dG unfold” value in data set [1] turned out to be 2.94 ± 0.064 kcal/mol; in data set [2], 2.3 ± 0.11 kcal/mol; in data set [3] it was 2.7 ± 0.14 kcal/mol.
Taken in the same sequence, the figures for “SAGGSAGGSAKPKITVTVEEVTNEDGSTYYRATARIEETGRTIEIYVRRDDLGKPVAIKITSAGGSAGGSAG [r3_432_TrROS_Hall]” were 2.4 ± 0.085 kcal/mol, 1.82 ± 0.058 kcal/mol and 2.18 ± 0.12 kcal/mol.
In the case of “SAGGSAGGSAKPKLHIHILTAGPFEELAELLEELAKRIFPPELEIDIHIHYIPKELLHPELGSAGGSAGGSA [r18_498_TrMRF]”, the results for the “folding stability dG unfold” value in data set [1], in data set [2] and in data set [3] were 2.51 ± 0.041 kcal/mol, 2.74 ± 0.15 kcal/mol and 2.59 ± 0.077 kcal/mol, respectively.
Take “SAGGSAGGSAKPNNAELVKVTYDPETGDFYAFYKIKNTDTVYVLRFNKDGTVEVKEYKFSEASAGGSAGGSA [r18_521_TrMRF]”: the “folding stability dG unfold” value in data set [1] amounted to 3.96 ± 0.08 kcal/mol; in data set [2], 2.96 ± 0.21 kcal/mol; in data set [3], 3.68 ± 0.17 kcal/mol.
On to “SAGGSAGGSAKPTFDNVENLSLEELAKKIAKEAAEKYPDAKNVEVEFRLPNGKSYRIVVDVDSAGGSAGGSA [r18_449_TrMRF]”, for which the figures for the “folding stability dG unfold” value in data set [1], in data set [2] and in data set [3] were 1.26 ± 0.12 kcal/mol, 1.21 ± 0.036 kcal/mol and 1.26 ± 0.096 kcal/mol, respectively.
Taken in the same sequence, the figures for “SAGGSAGGSAKRKVIEVDSLEEIKKAIEEAKEGEVVEIVVRDPETNETYTLKVVDGKIVLIPSAGGSAGGSA [r18_407_TrROS_Hall]” were 2.664 ± 0.014 kcal/mol, 1.32 ± 0.039 kcal/mol and 2.27 ± 0.049 kcal/mol.
On the same counts, the results for “SAGGSAGGSAKSVVRIKIYNKKTGKVLEIEIPENMTEEEIKKLAEELAKKNNVEIVEVEKVPSAGGSAGGSA [r18_322_TrROS_Hall]” are 2.99 ± 0.051 kcal/mol, 1.83 ± 0.051 kcal/mol and 2.63 ± 0.12 kcal/mol.
Take “SAGGSAGGSAKTITITFLFDSPENAKDFVREIAQEDGMKIKVEWERDPEGWWWVTATIEVPSAGGSAGGSAG [r3_273_TrROS]”: the “folding stability dG unfold” value in data set [1] was found to be 3.48 ± 0.13 kcal/mol; in data set [2], 2.36 ± 0.1 kcal/mol; in data set [3], 3.14 ± 0.15 kcal/mol.
Regarding “SAGGSAGGSAKVVVDEVEVEVFKNEDGEEVLRVRFKKTGEEVEIPLEDLEKLELPPGAVVEPSAGGSAGGSA [r18_288_TrROS_Hall]”, the “folding stability dG unfold” value in data set [1] was determined as 1.84 ± 0.05 kcal/mol; in data set [2], 0.246 ± 0.035 kcal/mol; in data set [3], 1.41 ± 0.07 kcal/mol.
For “SAGGSAGGSAKYLVVGGKVIEIPSGGDAKIETTKDDRVKVTIDLPDDRKLEFTFPVPKWVGSAGGSAGGSAG [r3_207_TrMRF]”, the entries for the “folding stability dG unfold” value in data set [1], in data set [2] and in data set [3] were 0.215 ± 0.099 kcal/mol, 0.514 ± 0.029 kcal/mol and 0.408 ± 0.07 kcal/mol, respectively.
As to “SAGGSAGGSALAEELAAKYPGLQVEVTRVEVEREVTDADGRKRTERVERLEIRVVKPGEELSAGGSAGGSAG [r3_358_TrROS_Hall]”, the “folding stability dG unfold” value is -0.0574 ± 0.06 kcal/mol in data set [1], 0.5 ± 0.034 kcal/mol in data set [2] and 0.164 ± 0.18 kcal/mol in data set [3].
With “SAGGSAGGSALDSLVPDIDLRVRVEPVPDDPSILRADVELSDGLVLEVEFLPSGVARVSLSGKGSAGGSAGG [r6_122_TrMRF]”, the “folding stability dG unfold” value in data set [1] is -0.246 ± 0.11 kcal/mol; in data set [2], -0.0307 ± 0.084 kcal/mol; in data set [3], -0.0927 ± 0.058 kcal/mol.
Take “SAGGSAGGSALIIVAPDGFIISIEWPNGKPRTIMMPPDEIDEILEDDGIKDIEIQKLPPGASAGGSAGGSAG [r3_141_TrROS]”: the “folding stability dG unfold” value in data set [1] was determined as 1.49 ± 0.036 kcal/mol; in data set [2] it was 0.388 ± 0.05 kcal/mol; in data set [3] it was 1.14 ± 0.074 kcal/mol.
Regarding “SAGGSAGGSALKPNETATIRILTTAPDGKPYVLVVEVRVLPDGGVEVLGYKLVTLSDLEKNSAGGSAGGSAG [r3_212_TrMRF]”, the “folding stability dG unfold” value turned out to be 3.74 ± 0.082 kcal/mol in data set [1], 2.53 ± 0.11 kcal/mol in data set [2] and 3.32 ± 0.11 kcal/mol in data set [3].
On the same counts, the results for “SAGGSAGGSALPLPPDQRLYVFRDPEGDLYLVRFEDGSEVRTSLKAEDLEKLGVPVVDIGDLSAGGSAGGSA [r18_125_TrMRF]” are 1.49 ± 0.037 kcal/mol, 1.73 ± 0.035 kcal/mol and 1.66 ± 0.032 kcal/mol.
